Assay results reported in US20260242478A1 (published 2026).
Where no end group is shown, it is not given here.

Tests used:
[1] = target: T1, Anti-CD28 Fab (SEQ ID NOs: 696, 697); assay: phage binding ELISA on captured anti-CD28 Fab; competitor CD28 antigen
T1 construct: Biotinylated and captured on neutravidin coated plates in the phage ELISA
Procedure: (§1) Clonal phage were harvested as crude supematants and screened via standard ELISAs. […] Prior to the addition of clonal phage, wells were incubated with blocking buffer and CD28 antigen or blocking buffer alone. Without washing or aspirating, clonal phage supematants were then added to the wells and incubated for a short time. Wells were then washed followed by detection of bound phage using a horse radish conjugated anti-M13 antibody.

[2] = target: T1, Anti-CD28 Fab (SEQ ID NOs: 696, 697); assay: phage binding ELISA; biotinylated anti-CD28 Fab on neutravidin plate, anti-M13 HRP detection
Procedure: as §1

[3] = target: T2, Anti-PSMA Fab (SEQ ID NOs: 19, 20); assay: phage ELISA; clonal phage on captured PSMA Fab pre-incubated with PSMA antigen as competitor, anti-M13 HRP detection
T2 construct: also called 006 PSMA Fab
Procedure: (§2) Clonal phage were harvested as crude supernatants and screened via standard ELISAs. […] Prior to the addition of clonal phage. wells were incubated with blocking buffer and PSMA antigen or blocking buffer alone. Without washing or aspirating, clonal phage supernatants were then added to the wells and incubated for a short time. Wells were then washed followed by detection of bound phage using a horse radish conjugated anti-M13 antibody.

[4] = target: T2, Anti-PSMA Fab (SEQ ID NOs: 19, 20); assay: phage ELISA; clonal phage supernatant on biotinylated PSMA Fab captured on neutravidin plates, anti-M13 HRP detection
Procedure: as §2

anti-CD28 Fab = assay: competition ELISA, peptide titrated 0-100 uM against 1 nM anti-CD28 Fab, plate-bound CD28 as competitor
Sequence of anti-CD28 Fab (VH, as listed by the source, chain 1 of 2): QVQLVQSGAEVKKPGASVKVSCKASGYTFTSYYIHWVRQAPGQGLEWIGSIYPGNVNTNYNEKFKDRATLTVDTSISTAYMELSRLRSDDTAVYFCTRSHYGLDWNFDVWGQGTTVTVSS
Sequence of anti-CD28 Fab (VL, as listed by the source, chain 2 of 2): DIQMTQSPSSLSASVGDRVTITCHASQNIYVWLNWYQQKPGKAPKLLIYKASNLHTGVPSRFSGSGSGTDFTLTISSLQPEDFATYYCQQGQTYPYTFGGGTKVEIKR

T1 sequence (VH, as listed by the source, chain 1 of 2): as the sequence (VH, as listed by the source, chain 1 of 2) above
T1 sequence (VL, as listed by the source, chain 2 of 2): as the sequence (VL, as listed by the source, chain 2 of 2) above

B1: Phage-459 (peptide)
peptide: GCQYPWAFDAMSCP
modifications: cysteine pairing not given here; also: displayed as fusion to phage pIII, linker and pIII sequence not given here
notes: Clonal phage supernatant; also called Peptide-80; not shown: fused to the pIII filament protein of the bacteriophage
Anti-CD28 Fab signal in the presence of CD28 [1]: 0.07 | Anti-CD28 Fab (SEQ ID NOs: 696, 697) signal [2]: 2.38

B2: Phage-1757 (peptide)
peptide: DCHWNKATWWMDCE
Phage binding ELISA, Anti-PSMA Fab signal in the presence of PSMA [3]: 0.0828 | Phage binding ELISA, Anti-PSMA Fab (SEQ ID NOs: 19, 20) signal [4]: 1.18

B3: Phage-1748 (peptide)
peptide: LTRCVPDWMCYRAV
Phage binding ELISA, Anti-PSMA Fab signal in the presence of PSMA [3]: 0.0708 | Phage binding ELISA, Anti-PSMA Fab (SEQ ID NOs: 19, 20) signal [4]: 1.17

B4: Phage-1745 (peptide)
peptide: QLPCHYWGEWCPQA
Phage binding ELISA, Anti-PSMA Fab signal in the presence of PSMA [3]: 0.0537 | Phage binding ELISA, Anti-PSMA Fab (SEQ ID NOs: 19, 20) signal [4]: 1.39

B5: Phage-455 (peptide)
peptide: WECLKYTEANACTY
notes: Clonal phage supernatant; also called Peptide-76; not shown: fused to the pIII filament protein of the bacteriophage
Anti-CD28 Fab signal in the presence of CD28 [1]: 0.07 | Anti-CD28 Fab (SEQ ID NOs: 696, 697) signal [2]: 1.55

B6: Phage-1751 (peptide)
peptide: WCWVQDDRRHVVCG
Phage binding ELISA, Anti-PSMA Fab signal in the presence of PSMA [3]: 0.0549 | Phage binding ELISA, Anti-PSMA Fab (SEQ ID NOs: 19, 20) signal [4]: 1.19

B7: Phage-1750 (peptide)
peptide: ILPCHWYTSDCPQH
notes: also called Peptide-200
Phage binding ELISA, Anti-PSMA Fab signal in the presence of PSMA [3]: 0.117 | Phage binding ELISA, Anti-PSMA Fab (SEQ ID NOs: 19, 20) signal [4]: 1.63

B8: Phage-1747 (peptide)
peptide: PLCGTEEVWWECRL
Phage binding ELISA, Anti-PSMA Fab signal in the presence of PSMA [3]: 0.0826 | Phage binding ELISA, Anti-PSMA Fab (SEQ ID NOs: 19, 20) signal [4]: 1.78

B9: Phage-457 (peptide)
peptide: PDCQTILFKPWCVR
modifications: cysteine pairing not given here; also: displayed as fusion to phage pIII, linker and pIII sequence not given here
notes: Clonal phage supernatant; also called Peptide-78; not shown: fused to the pIII filament protein of the bacteriophage
Anti-CD28 Fab signal in the presence of CD28 [1]: 0.06 | Anti-CD28 Fab (SEQ ID NOs: 696, 697) signal [2]: 2.09

B10: Phage-1759 (peptide)
peptide: QCVWDRGTWWMACD
Phage binding ELISA, Anti-PSMA Fab signal in the presence of PSMA [3]: 0.052 | Phage binding ELISA, Anti-PSMA Fab (SEQ ID NOs: 19, 20) signal [4]: 0.414

B11: Phage-461 (peptide)
peptide: WCWDYREWVPMTCP
modifications: cysteine pairing not given here; also: displayed as fusion to phage pIII, linker and pIII sequence not given here
notes: Clonal phage supernatant; also called Peptide-82; not shown: fused to the pIII filament protein of the bacteriophage
Anti-CD28 Fab signal in the presence of CD28 [1]: 0.08 | Anti-CD28 Fab (SEQ ID NOs: 696, 697) signal [2]: 2.3

B12: Phage-467 (peptide)
peptide: WCWYYREWVPMTCP
modifications: cysteine pairing not given here; also: displayed as fusion to phage pIII, linker and pIII sequence not given here
notes: Clonal phage supernatant; also called Peptide-88; not shown: fused to the pIII filament protein of the bacteriophage
Anti-CD28 Fab signal in the presence of CD28 [1]: 0.07 | Anti-CD28 Fab (SEQ ID NOs: 696, 697) signal [2]: 1.85

B13: Phage-1746 (peptide)
peptide: FWECYSSFCRFVEG
Phage binding ELISA, Anti-PSMA Fab signal in the presence of PSMA [3]: 0.139 | Phage binding ELISA, Anti-PSMA Fab (SEQ ID NOs: 19, 20) signal [4]: 1.46

B14: Phage-456 (peptide)
peptide: FMCLPQNPHPLCFK
notes: Clonal phage supernatant; also called Peptide-77; not shown: fused to the pIII filament protein of the bacteriophage
Anti-CD28 Fab signal in the presence of CD28 [1]: 0.06 | Anti-CD28 Fab (SEQ ID NOs: 696, 697) signal [2]: 0.84

B15: Phage-468 (peptide)
peptide: YWYCSPSIVRCVLV
notes: Clonal phage supernatant; also called Peptide-89; not shown: fused to the pIII filament protein of the bacteriophage
Anti-CD28 Fab signal in the presence of CD28 [1]: 0.09 | Anti-CD28 Fab (SEQ ID NOs: 696, 697) signal [2]: 1.51

B16: Phage-454 (peptide)
peptide: YWSCFQIPFTCFYF
notes: Clonal phage supernatant; also called Peptide-75; not shown: fused to the pIII filament protein of the bacteriophage
Anti-CD28 Fab signal in the presence of CD28 [1]: 0.27 | Anti-CD28 Fab (SEQ ID NOs: 696, 697) signal [2]: 1.44

B17: Phage-463 (peptide)
peptide: YCAGHSPINIGKCL
modifications: cysteine pairing not given here; also: displayed as fusion to phage pIII, linker and pIII sequence not given here
notes: Clonal phage supernatant; also called Peptide-84; not shown: fused to the pIII filament protein of the bacteriophage
Anti-CD28 Fab signal in the presence of CD28 [1]: 0.06 | Anti-CD28 Fab (SEQ ID NOs: 696, 697) signal [2]: 1.49

B18: Phage-1752 (peptide)
peptide: MCQWDELNYWMDCD
Phage binding ELISA, Anti-PSMA Fab signal in the presence of PSMA [3]: 0.0565 | Phage binding ELISA, Anti-PSMA Fab (SEQ ID NOs: 19, 20) signal [4]: 1.65

B19: Phage-1743 (peptide)
peptide: MEYCSFHRFTCVLW
Phage binding ELISA, Anti-PSMA Fab signal in the presence of PSMA [3]: 0.116 | Phage binding ELISA, Anti-PSMA Fab (SEQ ID NOs: 19, 20) signal [4]: 1.93

B20: Phage-1742 (peptide)
peptide: HCLWHESSGRVLCF
Phage binding ELISA, Anti-PSMA Fab signal in the presence of PSMA [3]: 0.0678 | Phage binding ELISA, Anti-PSMA Fab (SEQ ID NOs: 19, 20) signal [4]: 2.15

B21: Phage-1755 (peptide)
peptide: MCQWDKINYWMDCD
Phage binding ELISA, Anti-PSMA Fab signal in the presence of PSMA [3]: 0.049 | Phage binding ELISA, Anti-PSMA Fab (SEQ ID NOs: 19, 20) signal [4]: 1.81

B22: Phage-1744 (peptide)
peptide: SKLLCVPPWMCYHV
Phage binding ELISA, Anti-PSMA Fab signal in the presence of PSMA [3]: 0.0794 | Phage binding ELISA, Anti-PSMA Fab (SEQ ID NOs: 19, 20) signal [4]: 0.806

B23: Phage-458 (peptide)
peptide: ACDTYFAGMINECF
modifications: cysteine pairing not given here; also: displayed as fusion to phage pIII, linker and pIII sequence not given here
notes: Clonal phage supernatant; also called Peptide-79; not shown: fused to the pIII filament protein of the bacteriophage
Anti-CD28 Fab signal in the presence of CD28 [1]: 0.1 | Anti-CD28 Fab (SEQ ID NOs: 696, 697) signal [2]: 0.92

B24: Phage-462 (peptide)
peptide: ECHWSMWAVGHACF
modifications: cysteine pairing not given here; also: displayed as fusion to phage pIII, linker and pIII sequence not given here
notes: Clonal phage supernatant; also called Peptide-83; not shown: fused to the pIII filament protein of the bacteriophage
Anti-CD28 Fab signal in the presence of CD28 [1]: 0.07 | Anti-CD28 Fab (SEQ ID NOs: 696, 697) signal [2]: 1.77

B25: Phage-1758 (peptide)
peptide: MCFVTGWGVPDDCN
Phage binding ELISA, Anti-PSMA Fab signal in the presence of PSMA [3]: 0.0694 | Phage binding ELISA, Anti-PSMA Fab (SEQ ID NOs: 19, 20) signal [4]: 0.638

B26: Phage-1756 (peptide)
peptide: QCVWDLTNYWMNCD
Phage binding ELISA, Anti-PSMA Fab signal in the presence of PSMA [3]: 0.057 | Phage binding ELISA, Anti-PSMA Fab (SEQ ID NOs: 19, 20) signal [4]: 1.3

B27: Phage-1749 (peptide)
peptide: YCWVDADMWLIFRC
Phage binding ELISA, Anti-PSMA Fab signal in the presence of PSMA [3]: 0.275 | Phage binding ELISA, Anti-PSMA Fab (SEQ ID NOs: 19, 20) signal [4]: 1.01

B28: Phage-466 (peptide)
peptide: YCAGHAWQYINKCL
modifications: cysteine pairing not given here; also: displayed as fusion to phage pIII, linker and pIII sequence not given here
notes: Clonal phage supernatant; also called Peptide-87; not shown: fused to the pIII filament protein of the bacteriophage
Anti-CD28 Fab signal in the presence of CD28 [1]: 0.07 | Anti-CD28 Fab (SEQ ID NOs: 696, 697) signal [2]: 0.64

B29: Phage-471 (peptide)
peptide: SCAAGASYAWPYCL
notes: Clonal phage supernatant; also called Peptide-92; not shown: fused to the pIII filament protein of the bacteriophage
Anti-CD28 Fab signal in the presence of CD28 [1]: 0.05 | Anti-CD28 Fab (SEQ ID NOs: 696, 697) signal [2]: 1.49

B30: Phage-464 (peptide)
peptide: WCWDYKLWVPMTCP
modifications: cysteine pairing not given here; also: displayed as fusion to phage pIII, linker and pIII sequence not given here
notes: Clonal phage supernatant; also called Peptide-85; not shown: fused to the pIII filament protein of the bacteriophage
Anti-CD28 Fab signal in the presence of CD28 [1]: 0.11 | Anti-CD28 Fab (SEQ ID NOs: 696, 697) signal [2]: 2.51

B31: Phage-470 (peptide)
peptide: WICDKSGSIMLCRA
notes: Clonal phage supernatant; also called Peptide-91; not shown: fused to the pIII filament protein of the bacteriophage
Anti-CD28 Fab signal in the presence of CD28 [1]: 0.06 | Anti-CD28 Fab (SEQ ID NOs: 696, 697) signal [2]: 0.91

B32: Peptide-117 (peptide)
peptide: YCEGHSPEYILKCL
IC50 (anti-CD28 Fab): 1.53 µM

B33: Peptide-118 (peptide)
peptide: YCEGHRPEYILKCL
IC50 (anti-CD28 Fab): 13.3 µM

B34: Phage-1753 (peptide)
peptide: QCVWDNFNYWMDCD
Phage binding ELISA, Anti-PSMA Fab signal in the presence of PSMA [3]: 0.0667 | Phage binding ELISA, Anti-PSMA Fab (SEQ ID NOs: 19, 20) signal [4]: 0.772

B35: Peptide-119 (peptide)
peptide: YCEGHEGIYFWKCL
IC50 (anti-CD28 Fab): 77.7 µM

B36: Phage-472 (peptide)
peptide: DCPWLSGFSRPLLC
notes: Clonal phage supernatant; also called Peptide-93; not shown: fused to the pIII filament protein of the bacteriophage
Anti-CD28 Fab signal in the presence of CD28 [1]: 0.07 | Anti-CD28 Fab (SEQ ID NOs: 696, 697) signal [2]: 1.27

B37: Phage-460 (peptide)
peptide: WCWDYKLWVPTQCP
modifications: cysteine pairing not given here; also: displayed as fusion to phage pIII, linker and pIII sequence not given here
notes: Clonal phage supernatant; also called Peptide-81; not shown: fused to the pIII filament protein of the bacteriophage
Anti-CD28 Fab signal in the presence of CD28 [1]: 0.14 | Anti-CD28 Fab (SEQ ID NOs: 696, 697) signal [2]: 2.27

B38: Phage-1754 (peptide)
peptide: QCTWNEKTWWMECE
Phage binding ELISA, Anti-PSMA Fab signal in the presence of PSMA [3]: 0.0568 | Phage binding ELISA, Anti-PSMA Fab (SEQ ID NOs: 19, 20) signal [4]: 1.35

B39: Phage-465 (peptide)
peptide: DCWWMFESYPGRCI
modifications: cysteine pairing not given here; also: displayed as fusion to phage pIII, linker and pIII sequence not given here
notes: Clonal phage supernatant; also called Peptide-86; not shown: fused to the pIII filament protein of the bacteriophage
Anti-CD28 Fab signal in the presence of CD28 [1]: 0.07 | Anti-CD28 Fab (SEQ ID NOs: 696, 697) signal [2]: 1.65
